# Source: IntAct's records for PubMed 24929360
# B1: Catenin delta-1 (Mus musculus), P30999 (parent)
# chain: MDDSEVESTASILASVKEQEAQFEKLTRALEEERRHVSAQLERVRVSPQDANSLMANGTLTRRHQNGRFVGDADLERQKFSDLKLNGPQDHNHLLYSTIPRMQEPGQIVETYTEEDPEGAMSVVSVETTDDGTTRRTETTVKKVVKTMTTRTVQPVPMGPDGLPVDASAVSNNYIQTLGRDFRKNGNGGPGPYVGQAGTATLPRNFHYPPDGYGRHYEDGYPGGSDNYGSLSRVTRIEERYRPSMEGYRAPSRQDVYGPQPQVRVGGSSVDLHRFHPEPYGLEDDQRSMGYDDLDYGMMSDYGTARRTGTPSDPRRRLRSYEDMIGEEVPPDQYYWAPLAQHERGSLASLDSLRKGMPPPSNWRQPELPEVIAMLGFRLDAVKSNAAAYLQHLCYRNDKVKTDVRKLKGIPILVGLLDHPKKEVHLGACGALKNISFGRDQDNKIAIKNCDGVPALVRLLRKARDMDLTEVITGTLWNLSSHDSIKMEIVDHALHALTDEVIIPHSGWEREPNEDCKPRHIEWESVLTNTAGCLRNVSSERSEARRKLRECDGLVDALIFIVQAEIGQKDSDSKLVENCVCLLRNLSYQVHREIPQAERYQEALPTVANSTGPHAASCFGAKKGKDEWFSRGKKPTEDPANDTVDFPKRTSPARGYELLFQPEVVRIYISLLKESKTPAILEASAGAIQNLCAGRWTYGRYIRSALRQEKALSAIAELLTSEHERVVKAASGALRNLAVDARNKELIGKHAIPNLVKNLPGGQQNSSWNFSEDTVVSILNTINEVIAENLEAAKKLRETQGIEKLVLINKSGNRSEKEVRAAALVLQTIWGYKELRKPLEKEGWKKSDFQVNLNNASRSQSSHSYDDSTLPLIDRNQKSDKKPDREEIPMSNMGSNTKSLDNNYSTLNERGDHNRTLDRSGDLGDMEPLKGAPLMQKI
# Variants of: B1
# Conditions: with cadh2_mouse Cdh2, P15116
# cadh2_mouse Cdh2, P15116, sequence (P15116 whole entry): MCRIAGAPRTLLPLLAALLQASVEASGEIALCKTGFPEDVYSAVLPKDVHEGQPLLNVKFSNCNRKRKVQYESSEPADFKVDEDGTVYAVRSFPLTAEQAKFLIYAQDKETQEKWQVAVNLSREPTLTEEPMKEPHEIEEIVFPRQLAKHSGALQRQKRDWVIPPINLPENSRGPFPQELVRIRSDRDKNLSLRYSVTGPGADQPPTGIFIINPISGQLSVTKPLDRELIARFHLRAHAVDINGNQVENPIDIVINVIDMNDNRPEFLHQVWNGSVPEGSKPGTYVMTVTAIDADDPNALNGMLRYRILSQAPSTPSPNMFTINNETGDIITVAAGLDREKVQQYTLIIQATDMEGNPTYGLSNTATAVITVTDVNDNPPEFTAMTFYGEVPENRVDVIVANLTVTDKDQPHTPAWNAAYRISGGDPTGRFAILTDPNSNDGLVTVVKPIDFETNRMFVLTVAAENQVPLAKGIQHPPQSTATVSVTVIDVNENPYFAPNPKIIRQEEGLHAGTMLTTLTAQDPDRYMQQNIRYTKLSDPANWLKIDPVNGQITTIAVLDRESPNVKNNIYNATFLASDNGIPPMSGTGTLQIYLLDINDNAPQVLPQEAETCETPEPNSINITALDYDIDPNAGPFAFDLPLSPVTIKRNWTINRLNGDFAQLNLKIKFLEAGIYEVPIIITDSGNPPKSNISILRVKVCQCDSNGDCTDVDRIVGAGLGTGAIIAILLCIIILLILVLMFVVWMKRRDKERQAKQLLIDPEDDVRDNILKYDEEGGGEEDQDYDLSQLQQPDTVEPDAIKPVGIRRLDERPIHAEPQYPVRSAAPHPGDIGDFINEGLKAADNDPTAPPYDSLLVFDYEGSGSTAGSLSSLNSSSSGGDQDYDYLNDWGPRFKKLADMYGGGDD
row,Variant,effect of a mutation on the interaction
1,T310A,increasing interaction strength
